Measurements published in patent publication US20200206198A1, “CFTR CHANNEL ACTIVATOR FOR USE IN THE TREATMENT AND/OR PREVENTION OF GLUTEN SENSITIVITY CONDITIONS” (priority 2017, published 2020).

How the values were obtained:
[1] = molecular target: T1, CFTR (Homo sapiens, UniProt P13569); test: Co-immunoprecipitation of biotinylated peptides with CFTR in Caco-2 cells; assay type: cell-based
T1 construct: Immunoprecipitations of endogenous proteins were performed on 500 μg of lysates from Caco-2 cells; host or cells: Caco-2, T84
T1 sequence (P13569 whole entry): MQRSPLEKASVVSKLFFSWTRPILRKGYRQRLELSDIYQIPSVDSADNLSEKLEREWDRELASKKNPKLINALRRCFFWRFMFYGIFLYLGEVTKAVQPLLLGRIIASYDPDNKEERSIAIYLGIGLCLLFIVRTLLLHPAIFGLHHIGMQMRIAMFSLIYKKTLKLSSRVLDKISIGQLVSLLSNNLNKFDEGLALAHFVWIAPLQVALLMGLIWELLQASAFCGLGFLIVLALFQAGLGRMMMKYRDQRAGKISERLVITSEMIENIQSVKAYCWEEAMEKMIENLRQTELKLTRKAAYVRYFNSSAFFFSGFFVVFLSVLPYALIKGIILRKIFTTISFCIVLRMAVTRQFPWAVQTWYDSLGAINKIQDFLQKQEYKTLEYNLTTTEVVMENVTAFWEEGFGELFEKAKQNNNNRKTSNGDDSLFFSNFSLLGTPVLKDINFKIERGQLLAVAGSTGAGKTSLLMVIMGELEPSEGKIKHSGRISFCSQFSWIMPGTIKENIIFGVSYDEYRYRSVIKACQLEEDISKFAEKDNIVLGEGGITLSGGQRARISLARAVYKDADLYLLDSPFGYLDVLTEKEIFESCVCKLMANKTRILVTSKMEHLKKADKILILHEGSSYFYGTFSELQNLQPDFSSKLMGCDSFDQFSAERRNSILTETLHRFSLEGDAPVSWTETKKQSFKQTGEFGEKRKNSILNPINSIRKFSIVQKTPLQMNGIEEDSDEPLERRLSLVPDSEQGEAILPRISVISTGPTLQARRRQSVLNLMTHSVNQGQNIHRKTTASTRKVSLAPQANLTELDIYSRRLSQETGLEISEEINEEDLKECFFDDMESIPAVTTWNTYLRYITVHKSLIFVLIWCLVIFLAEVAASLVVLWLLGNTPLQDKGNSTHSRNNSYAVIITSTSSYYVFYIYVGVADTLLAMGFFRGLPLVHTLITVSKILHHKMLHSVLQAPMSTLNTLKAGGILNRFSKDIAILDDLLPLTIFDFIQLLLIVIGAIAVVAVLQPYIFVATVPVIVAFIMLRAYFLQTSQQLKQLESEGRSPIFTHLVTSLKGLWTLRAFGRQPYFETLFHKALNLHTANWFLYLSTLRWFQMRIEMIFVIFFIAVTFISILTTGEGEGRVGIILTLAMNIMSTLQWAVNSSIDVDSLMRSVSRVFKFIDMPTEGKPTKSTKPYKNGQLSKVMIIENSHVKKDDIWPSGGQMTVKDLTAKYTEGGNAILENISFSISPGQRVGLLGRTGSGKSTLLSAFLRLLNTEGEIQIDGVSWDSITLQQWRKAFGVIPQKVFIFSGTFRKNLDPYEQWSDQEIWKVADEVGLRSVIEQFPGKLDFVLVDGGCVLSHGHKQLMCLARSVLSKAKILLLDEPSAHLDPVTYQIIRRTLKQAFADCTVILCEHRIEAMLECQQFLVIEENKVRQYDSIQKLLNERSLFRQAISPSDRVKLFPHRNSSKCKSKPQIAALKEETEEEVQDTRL
Experimental: Human colon adenocarcinoma-derived Caco-2 and T84 cells were obtained from the ATCC. Cells were maintained in T25 flask in Modified Eagle Medium (MEM) for Caco-2, or Ham's F12+DMEM (1:1) for T84, supplemented with 10% fetal bovine serum (FBS), 2 mM Glutamine+1% Non Essential Amino Acids (NEAA) and the antibiotics penicillin\streptomycin (100 units/ml) (all reagents from Lonza) (Luciani, A., et al. 2010. Cells were grown in Transwells (Corning, 3470 or 3460) under the normal condition (Luciani, A., et al. 2012). Briefly, 8×10^4 or 5×10^5 cells were seeded in 6.5-mm diameter or 12-mm diameter, respectively, and grown until the RT reached 800 to 1,200 Ω·cm2. Transwells with a pore size of 0.4 μm were used. Medium in both the apical and basolateral chambers was changed every other day. […] Cells were also treated with 50 or 100 μg/ml of P57-68 or PGAV peptides for 3 h. Caco-2 or T84 cells were also treated with: CFTR potentiators VX-770 (10 μM) or VX-532 (20 μM) (Selleck chemicals) or Genistein (10 μM) (Sigma-Aldrich) or in presence or absence of CFTR inhibitor172 (CFTRinh172, 20 μM) or 3-methyl-adenine (3-MA, 20 μM) (Calbiochem), Z-DON (20 nM, Zedira) or BAPTA-AM (10 μM, Calbiochem).
For detection of complex with biotnylated-P31-43 or immune-complex of glutamime-lysine bonds, the beads were resolved in non-reducing and non-denaturating conditions, and then blotted with Streptavidin-HRP (Sigma 52438) 1:3000 or anti-biotin (Abcam ab2103) 1:2500 and anti-isopeptide (Abcam 422) 1:1000.
The separation of endosomal fractions was performed as described^9 from treated and untreated cells. Protein of endosomal fraction were resolved by SDS-Page and blotted with primary antibodies against Rab-5(Abcam 18211) 1:500, Rab-7(Abcam 77993) 1:500, EEA-1 (Abcam 2900) 1:500, TG2 or CFTR. EEA-1 was used as early endosome marker. For detection of complex with biotnylated-P31-43, the beads were resolved in non-reducing and non-denaturating conditions, and then blotted with Streptavidin-HRP (Sigma S2438) 1:3000 or anti-biotin (Abcam ab2103) 1:2500.

[2] = molecular target: T2, PM-associated CFTR (Homo sapiens, UniProt P13569); test: CFTR plasma membrane disposal in Caco-2 cells (membrane fractions); assay type: cell-based
T2 construct: Immunoprecipitations of endogenous proteins were performed on 500 μg of lysates from Caco-2 cells; host or cells: Caco-2, T84
T2 sequence (P13569 whole entry): as above
Experimental: Human colon adenocarcinoma-derived Caco-2 and T84 cells were obtained from the ATCC. Cells were maintained in T25 flask in Modified Eagle Medium (MEM) for Caco-2, or Ham's F12+DMEM (1:1) for T84, supplemented with 10% fetal bovine serum (FBS), 2 mM Glutamine+1% Non Essential Amino Acids (NEAA) and the antibiotics penicillin\streptomycin (100 units/ml) (all reagents from Lonza) (Luciani, A., et al. 2010. Cells were grown in Transwells (Corning, 3470 or 3460) under the normal condition (Luciani, A., et al. 2012). Briefly, 8×10^4 or 5×10^5 cells were seeded in 6.5-mm diameter or 12-mm diameter, respectively, and grown until the RT reached 800 to 1,200 Ω·cm2. Transwells with a pore size of 0.4 μm were used. Medium in both the apical and basolateral chambers was changed every other day. Cells were treated with 20 μg/ml of either α-gliadin peptide P31-43 or […] or scrambled PGAV or modified P31-43 either biotin-tagged or not, for different time point (from 1 h short challenge up to 24 h). Cells were also treated with 50 or 100 μg/ml of P57-68 or PGAV peptides for 3 h. Caco-2 or T84 cells were also treated with: CFTR potentiators VX-770 (10 μM) or VX-532 (20 μM) (Selleck chemicals) or Genistein (10 μM) (Sigma-Aldrich) or in presence or absence of CFTR inhibitor172 (CFTRinh172, 20 μM) or 3-methyl-adenine (3-MA, 20 μM) (Calbiochem), Z-DON (20 nM, Zedira) or BAPTA-AM (10 μM, Calbiochem).
The whole lysate or membrane fraction proteins of cell lines and mice intestine homogenates were obtained from treated and untreated cells or mice as described. The equal amount of protein were resolved by SDS-PAGE gel and blotted with antibodies against: SQSTM1, (Sigma Aldrich, 108k4767) 1:1000, PPARγ (Santa Cruz Biotechnology, sc7273) 1:500, BECN1 (Abcam, ab58878) 1:1000, CFTR clone M3A7 (Abcam, ab4067) 1:500, phospho-ERK1/2 (php42/44, Cell Signaling Technology, #91101) 1:1000, UVRAG (Santa Cruz Biotechnology sc8215) 1:1000, NHERF-1 (BD, 611161) 1:1000, EZRIN (BD, 610603) 1:1000, hVps34 (SigmaV9764) 1:300, biotin (Abcam, ab1227) 1:2000, PKAr2a (BD, 610625) 1:500, Ubiquitin (Cell Signaling clone P4D1, #3936) 1:1000, CHIP (Calbiochem PC711) 1:500, Caspase-1 p10 (M-20) (Santa Cruz Biotechnology, sc-514) 1:200, NLRP3 (Abcam, ab4207), 1:500, IDO1 (monoclonal; cv152) 1:1000^[80], used as primary antibodies. Normalization was performed by probing the membrane with anti-β-actin (Cell Signaling, #4970) 1:1000, anti-Gapdh (Sigma-Aldrich, G8795) 1:1000 and anti-flottilin (Abcam ab15148) 1:1000 antibodies. Immunoprecipitations of endogenous proteins were performed on 500 μg of lysates from Caco-2 cells. The proteins were incubated for 12-18 h at 4° C. with 10 ug\ml of specific antibody followed by the addition of Protein A/G-agarose beads for 4 h at 4° C. The beads were then washed three times with lysis buffer and Laemmli's sample buffer was added to the samples. The membranes were then blotted with: CFTR clone CF3 (Abcam, ab2784) 1:1000, TG2 (clone CUB7402; NeoMarkers) 1:1000, CHIP (Calbiochem PC711) 1:500, Ubiquitin (Cell Signaling clone P4D1 3936), isopeptide (Abcam 422) 1:1000, PKAR2 (BD 610625) 1:500.
Protein from membrane fractionation were obtained as described. Cells were homogenized with a PotterElvehjem pestle and centrifuged at 2300×g for 15 min at 4° C. […]

CC(C)(C)c1cc(C(C)(C)C)c(NC(=O)c2c[nH]c3ccccc3c2=O)cc1O [VX-770, N-(2,4-di-tert-butyl-5-hydroxyphenyl)-4-oxo-1,4-dihydroquinoline-3-carboxamide]
effect on co-immunoprecipitation between P31-43 and CFTR [1]: prevented the co-immunoprecipitation between P31-43 and CFTR
effect on P31-43-induced reduction of PM-associated CFTR [2]: counteracted

α-gliadin peptide LGQQQPFPPQQPY (SEQ ID 1), induces an enterocyte stress response (P31-43 sequence of alpha-gliadin)
presence in CFTR immunoprecipitates from early endosomal protein fractions [1]: revealed the presence of biotinylated P31-43
interaction (co-immunoprecipitation) with CFTR ([1]; 1 h with biotinylated peptides): co-immunoprecipitated with CFTR
co-immunoprecipitation with CFTR in clathrin+ EEA1− plasma membrane protein fractions ([1]; after 5 min incubation): co-immunoprecipitated
CHIP-mediated CFTR ubiquitilation [2]: promoted
abundance of plasma membrane-associated SQSTM1/p62 [2]: increased the abundance
overall abundance of PM-associated CFTR ([2]; after 24 h of challenge): reduction of the overall abundance of PM-associated CFTR
